In publication PMC6860424, “Structural analysis of the manganese transport regulator MntR from Bacillus halodurans in apo and manganese bound forms” (PLoS ONE, 2019):

Target: the molecule itself
Experiment: crystal structure; apo BhMntR; sitting-drop vapor diffusion at 296 K, 0.1 M sodium/potassium phosphate pH 6.2, 0.4 M magnesium formate; 2.3 Å; two subunits in the asymmetric unit

B1: manganese transport regulator MntR from Bacillus halodurans (natural protein, UniProt Q9K943 1-139, looked up)
chain: MPTPSMEDYLERIYLLIEEKGYARVSDIAEALEVHPSSVTKMVQKLDKSDYLVYERYRGLILTAKGKKIGKRLVYRHDLLEDFLKMIGVDSDHIYEDVEGIEHHLSWDAIDRIGDLVQYFQEDPSRLNDLREVQKKNEE
notes: MntR homologue BH2807 of Bacillus halodurans, a protein of 139 amino acids; gene amplified from genomic DNA into pET-28b(+) NdeI/XhoI; subunit described as residues 1-71 (domain 1) and 72-139 (domain 2); Homodimer in both crystal forms; also called BhMntR; BH2807; source: E. coli BL21(DE3) Star pLysS, purified (Ni IMAC, Superdex 200 gel filtration)
stoichiometry N: 2
